This is an account of results in patent US20220235123A1 (UNIVERSITY OF TORONTO, published 2022).

For assay [1], the target named is T1, recombinant human vascular endothelial growth factor (hVEGF) 121 (human, UniProt P15692 27-147).
T1 construct: mature; also called human VEGF-A121; hVEGF 121 isoform
T1 sequence (looked up): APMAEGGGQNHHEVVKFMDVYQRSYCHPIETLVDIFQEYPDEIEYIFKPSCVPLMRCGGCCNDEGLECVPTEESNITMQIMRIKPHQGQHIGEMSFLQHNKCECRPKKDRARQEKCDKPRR
Kind of assay: Fab-ELISA: Fab titrated on wells coated with 2 ug/mL hVEGF-121, detected with anti-kappa-light-chain-HRP. An excerpt:
(§1) FIG. 4a-b. […] The bound Fabs were detected with anti-Kappa-light-chain-HRP-conjugated antibody (B).
On the technique in general: An ELISA detects its analyte on a solid surface through an enzyme-linked reagent.

For assay [2], the target named is T1, recombinant human vascular endothelial …. Kind of assay: Fab-ELISA: Fab titrated on wells coated with 2 ug/mL hVEGF-121, detected with anti-kappa-light-chain-HRP; Kd estimated from EC50.
Description: as §1

Assay [3] has as its target recombinant human vascular endothelial growth factor (hVEGF) 121 (human) (UniProt P15692). Kind of assay: single point competitive phage-ELISA: residual binding of the Fab-phage to hVEGF after competition with 1 nM hVEGF.
In assay [4] the target is T1, recombinant human vascular endothelial …. Kind of assay: competitive Fab-ELISA (hVEGF).
Assay [5] shares this target. Kind of assay: single point competitive phage-ELISA: residual binding of the Fab-phage to hVEGF after competition with 1 nM hVEGF.
The target in assay [6] is T2, recombinant human VEGF 165 isoform (human, UniProt P15692 27-191).
T2 construct: mature
The assay is described as follows: competitive ELISA in solution, 10 pM hVEGF-165, free VEGF read with Quantikine kit. The text has this:
(§2) Kd calculated from the data fitted with a 5 parameter asymmetric model with Prism software.
Target sequence in this assay (P15692 other isoform, or with tags, fused parts or gaps): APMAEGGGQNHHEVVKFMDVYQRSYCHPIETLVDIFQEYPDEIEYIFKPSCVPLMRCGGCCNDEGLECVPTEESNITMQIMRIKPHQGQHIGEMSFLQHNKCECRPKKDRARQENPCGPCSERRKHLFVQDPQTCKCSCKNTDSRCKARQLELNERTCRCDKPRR

Assay [7] concerns the target T1, recombinant human vascular endothelial …. The assay is described as follows: competitive ELISA, 100 pM Fab with serial dilutions of hVEGF-121, free Fab caught on hVEGF-121 plate; Kd estimated from IC50.
The target is the same in assay [8]. The assay is described as follows: competitive Fab-ELISA, data and fit for the Kd of panel A; x axis printed as LOG([Fab] nM) with ticks 10^-6 to 10^2; hVEGF, isoform not told.
Assay [9] shares this target. The assay is described as follows: competitive ELISA with soluble Fab (column 'Affinity measured by competitive ELISA'); hVEGF, isoform not told in the legend.
Assay [10] addresses T2, recombinant human VEGF 165 isoform. Kind of assay: competitive ELISA in solution: 10 pM hVEGF-165 incubated with serial dilutions of the Fab; hVEGF-165 captured and detected with the Quantikine human VEGF ELISA kit.
Description: FIG. 20. Competitive-ELISA. […] Kd was estimated using IC50 calculated from the data fitted with a 5 parameter asymmetric model with Prism software are shown in the table at the bottom of the figure.
as §2

Assay [11] has as its target T1, recombinant human vascular endothelial …. The assay is described as follows: SPR, off rate of hVEGF-121 binding.
For assay [12] the target is unchanged. Kind of assay: competitive Fab-ELISA.
In assay [13] the target is T2, recombinant human VEGF 165 isoform. The assay is described as follows: cell-based or functional assay.
The target is the same in assay [14]. Kind of assay: competitive ELISA in solution: 5 pM hVEGF-165 incubated with serial dilutions of the Fab; hVEGF-165 captured and detected with the Quantikine human VEGF ELISA kit. An excerpt:
FIG. 11. Competitive Fab-ELISA.
Since library FF01159-1 was designed with a deletion of one residue near the end of CDR-L2 (Kabat), the selected Fabs FF03033-4 and FF03033-8 were mutagenized to reintroduce previously deleted tyrosine residue back at the deleted position.

For assay [15] the target is unchanged. The assay is described as follows: competitive ELISA in solution: 5 pM hVEGF-165 incubated with serial dilutions of the antibody; hVEGF-165 captured and detected with the Quantikine human VEGF ELISA kit.
Assay [16] has the same target. Kind of assay: competitive ELISA in solution: 5 pM hVEGF-165 incubated with serial dilutions of the antibody; hVEGF-165 captured and detected with the Quantikine human VEGF ELISA kit; 5 parameter fit.

Changes are numbered by the printed parent chain.

Broadly, the EC50 (read off the curve) is the concentration giving half of the maximal effect. One may read the Kd as the free concentration of one partner at which half of the binding sites on the other are occupied at equilibrium, for simple one-to-one binding. Broadly, the koff is the rate constant with which the complex falls apart.

B1: FF0124-4 (Fab, V domains shown)
VH: EVQLVESGGGLVQPGGSLRLSCAASGFDLYSYSIHWVRQAPGKGLEWVASIYSYSGYTYYADSVKGRFTISADTSKNTAYLQMNSLRAEDTAVYYCARGGWYALDYWGQGTLVTVSS
VL: DIQMTQSPSSLSASVGDRVTITCRASQSVSSAVAWYQQKPGKAPKLLIYSASSLYSGVPSRFSGSRSGTDFTLTISSLQPEDFATYYCQQGYGPFYSLITFGQGTKVEIK
notes: also called FF0124-4 F2088
Consider B1, for which the “EC50 (read off the curve)” value in assay [1] was approximately 10 nM. Further, in [2], the Kd was 11 nM.

B2: FF0124-5 (Fab, V domains shown)
VH: EVQLVESGGGLVQPGGSLRLSCAASGFDISSYYMHWVRQAPGKGLEWVASIYSYSGYTYYADSVKGRFTISADTSKNTAYLQMNSLRAEDTAVYYCARHSVYYWYGSYWYYPSSAMDYWGQGTLVTVSS
VL: DIQMTQSPSSLSASVGDRVTITCRASQSVSSAVAWYQQKPGKAPKLLIYSASSLYSGVPSRFSGSRSGTDFTLTISSLQPEDFATYYCQQFWAGYGLITFGQGTKVEIK
notes: also called FF0124-5 F2091
As for B2, the “EC50 (read off the curve)” value in assay [1] was approximately 20 nM. Also, the Kd in assay [2] was 19 nM.

B3: FF0124-6 (Fab, V domains shown)
VH: EVQLVESGGGLVQPGGSLRLSCAASGFDIYYYSMHWVRQAPGKGLEWVASISSYSGYTSYADSVKGRFTISADTSKNTAYLQMNSLRAEDTAVYYCARYPYYYWAFDYWGQGTLVTVSS
VL: B2 VL with F91S, W92G, A93H, G94Y, Y95H, G96Y, L97P, I98F
notes: also called FF0124-6 F2094
For B3, in [1], the “EC50 (read off the curve)” value was approximately 20 nM. In addition, in assay [2], the Kd is 25 nM.

B4: FF0117-A10 (Fab, V domains shown)
VH: EVQLVESGGGLVQPGGSLRLSCAASGFDLFHYSIHWVRQAPGKGLEWVAYIYPSYGYTYYADSVKGRFTISADTSKNTAYLQMNSLRAEDTAVYYCARHAWYYGWALDYWGQGTLVTVSS
VL: DIQMTQSPSSLSASVGDRVTITCRASQSVSSAVAWYQQKPGKAPKLLIYSASSLYSGVPSRFSGSRSGTDFTLTISSLQPEDFATYYCQQRGWYLFTFGQGTKVEIK
Take B4: the Residual binding of competitive phage-ELISA 1nM in [3] worked out at 7%.

B5: FF0117-A8 (Fab, V domains shown)
VH: B4 VH with Y103S
VL: B4 VL
notes: fourth generation Fab from the library based on FF0188-H5
As for B5, the Kd in assay [4] came to 0.13 nM. In assay [5], the “Residual binding of competitive phage-ELISA 1nM” value (“Residual binding” below) turned out to be 17%.

B6: Fab 201 (Variant 201, produced from Clone #201) (Fab, V domains shown)
VH: B4 VH with A106G
VL: DIQMTQSPSSLSASVGDRVTITCRASQAAYGRVAWYQQKPGKAPKLLIYKASELYAGVPSRFSGSRSGTDFTLTISSLQPEDFATYYCQQRGWYLFTFGQGTKVEIKR
notes: also called Fab-F8.y
For the molecule B6, the Kd in [6] is 0.025 nM; in [7] it was 0.11 nM.

B7: FF0158-C4 (Fab, V domains shown)
VH: B4 VH with D28N, F30Y, H31Y, Y103S, L107M
VL: B4 VL
notes: Second generation Fab, Fab-phage in the single point assay; also called FF0158-C4 (2)
Take B7: in [8], the “IC50 (read off the curve)” value was approximately 0.1 nM. The Kd in [9] turned out to be 0.15 nM.

B8: FF0188-B10 (Fab, V domains shown)
VH: B4 VH with Y103S, L107M
VL: B4 VL
notes: third generation Fab from libraries based on FF0158-C4; also called FF01088-B10
In the case of B8, the “IC50 (read off the curve)” value in assay [8] is approximately 0.4 nM. Besides, in [9], the dissociation constant Kd came to 0.41 nM.

B9: FF0117-A3 (Fab, V domains shown)
VH: B4 VH with Y103F
VL: B4 VL
notes: as for B5
Take B9: in assay [4], the Kd was 0.06 nM. In addition, the “Residual binding” value in [5] was 7%.

B10: Fab variant 216 (Fab 216, derived from Clone #201) (Fab, V domains shown)
VH: B4 VH with F30D, A106G
VL: B6 VL
Regarding B10, the “IC50 (read off the curve)” value in assay [10] was approximately 0.04 nM. Besides, in assay [6], the dissociation constant (Kd) was determined as 0.035 nM.

B11: FF0117-A5 (Fab, V domains shown)
VH: B4 VH with A106G
VL: B4 VL
notes: Fourth generation Fab; also called FF0117-A5 (2); Fab-A5
Consider B11, for which, in assay [11], the koff was 0.000255 s⁻¹. For the same molecule, in [5], the “Residual binding” value came to 14%. In addition, the Kd in assay [12] amounted to 0.08 nM.

B12: Fab FF03046-2 (Fab, V domains shown)
VH: B4 VH with A106G
VL: B6 VL
notes: also called FF0346-2
As for B12, the “EC50, HUVEC proliferation assay” value in assay [13] was found to be 0.2 nM. Moreover, the “IC50 (read off the curve)” value in [14] and in assay [15] was approximately 0.09 nM in each case. For the same molecule, the Kd in assay [16] is 0.09 nM.

B13: FF0117-A11 (Fab, V domains shown)
VH: B4 VH with Y103W
VL: B4 VL
notes: as for B5
As to B13, in assay [4], the Kd came to 0.03 nM. Further, the “Residual binding” value in assay [5] came out at 5%.

B14: FF0188-H5 (Fab, V domains shown)
VH: B4 VH with Y103S, L107M
VL: B4 VL
notes: third generation Fab, parent of the FF0117 library; also called FF0188-H5(2)
Regarding B14, the Kd in assay [4] worked out at 0.4 nM; in assay [9] it was 0.45 nM. In addition, the “IC50 (read off the curve)” value in assay [8] was approximately 0.4 nM.

B15: FF0124-7 (Fab, V domains shown)
VH: EVQLVESGGGLVQPGGSLRLSCAASGFDLYYSYMHWVRQAPGKGLEWVASISSYSGYTSYADSVKGRFTISADTSKNTAYLQMNSLRAEDTAVYYCARGFYYGGWYGIDYWGQGTLVTVSS
VL: DIQMTQSPSSLSASVGDRVTITCRASQSVSSAVAWYQQKPGKAPKLLIYSASSLYSGVPSRFSGSRSGTDFTLTISSLQPEDFATYYCQQHYGPITFGQGTKVEIK
notes: also called FF0124-7 F2116
As to B15, in [1], the “EC50 (read off the curve)” value is approximately 30 nM. In addition, in [2], the Kd is 33 nM.

B16: FF0124-2 (Fab, V domains shown)
VH: EVQLVESGGGLVQPGGSLRLSCAASGFDLYYSSMHWVRQAPGKGLEWVASISPSSSYTYYADSVKGRFTISADTSKNTAYLQMNSLRAEDTAVYYCARYYWWHSPFWAYSGLDYWGQGTLVTVSS
VL: B15 VL with H91S, Y92G, G93P, P94L, I95F
notes: seventh Fab of the naive library selection; also called FF0124-2 F2083; FF0124 Fab # 2
On to B16, for which the concentration giving a half-maximal response (EC50 (read off the curve)) in [1] is approximately 50 nM. For the same molecule, the Kd in assay [2] was 47 nM.
